Laboratory results taken from patent US20230365709A1 (published 2023).

How the values were obtained:
[1] = target: T1, recombinant human CD64 expressed on the surface of CHO cells (human, UniProt P12314 16-374); assay: flow cytometry, CHO-huCD64 cells, apparent KD; SD 2.7
T1 construct: whole, on cells; also called huCD64
Description: (§1) The CHO cells were incubated with serial dilutions of the indicated trispecific constructs and control constructs at 37° C., and cell surface bound antibodies were detected by FITC-conjugated goat anti-human IgG Fc and flow cytometric analysis. Measured median fluorescence intensity values were used to calculate apparent affinities (KD) by non-linear regression.

[2] = target: T2, recombinant human CD32A expressed on the surface of CHO cells (human, UniProt P12318 34-317); assay: flow cytometry, CHO-huCD32A cells, apparent KD; SD 405.5
T2 construct: whole, on cells; also called huCD32A
T2 sequence (looked up): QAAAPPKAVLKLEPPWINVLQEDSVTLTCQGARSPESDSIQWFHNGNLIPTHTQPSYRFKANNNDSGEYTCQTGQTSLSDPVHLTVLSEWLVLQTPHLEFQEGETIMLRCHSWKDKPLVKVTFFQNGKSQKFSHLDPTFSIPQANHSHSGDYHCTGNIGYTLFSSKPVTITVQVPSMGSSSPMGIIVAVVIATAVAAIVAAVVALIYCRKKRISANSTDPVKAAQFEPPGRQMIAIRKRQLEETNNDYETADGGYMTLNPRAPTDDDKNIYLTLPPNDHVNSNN
Description: as §1

[3] = target: T3, recombinant human NKp46 expressed on the surface of CHO cells (human, UniProt O76036 22-304); assay: flow cytometry, CHO-huNKp46 cells, apparent KD; SD 2.8
T3 construct: whole, on cells; also called huNKp46; CD355
Description: as §1

[4] = target: T2, recombinant human CD32A expressed on …; assay: flow cytometry, CHO-huCD32A cells, apparent KD; SD 64.3
[5] = target: T3, recombinant human NKp46 expressed on …; assay: flow cytometry, CHO-huNKp46 cells, apparent KD; SD 3.7
[6] = target: T4, recombinant human CD16A (48R/158F) expressed on the surface of CHO cells (human, UniProt P08637 17-254); assay: flow cytometry, CHO-huCD16A cells, apparent KD; SD n.a.
T4 construct: also called huCD16A; CD16A (158F)

[7] = target: T1, recombinant human CD64 expressed on the …; assay: flow cytometry, CHO-huCD64 cells, apparent KD; SD 6.6
[8] = target: T1, recombinant human CD64 expressed on the …; assay: flow cytometry, CHO-huCD64 cells, apparent KD; SD 7.7
Description: as §1

[9] = target: T2, recombinant human CD32A expressed on …; assay: flow cytometry, CHO-huCD32A cells, apparent KD; SD n.a.
Description: as §1

[10] = target: T5, recombinant human NKG2D expressed on the surface of CHO cells (human, UniProt P26718 1-216); assay: flow cytometry, CHO-huNKG2D cells, apparent KD; SD 6.8
T5 construct: whole, on cells; also called huNKG2D; CD314
T5 sequence (looked up): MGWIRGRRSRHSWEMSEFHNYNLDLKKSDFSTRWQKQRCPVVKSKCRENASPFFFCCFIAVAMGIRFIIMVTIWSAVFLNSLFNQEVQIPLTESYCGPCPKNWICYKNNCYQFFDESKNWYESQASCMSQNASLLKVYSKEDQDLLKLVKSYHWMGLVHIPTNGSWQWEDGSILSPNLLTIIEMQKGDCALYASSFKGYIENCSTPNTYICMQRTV
Description: as §1

[11] = target: T1, recombinant human CD64 expressed on the …; assay: flow cytometry, CHO-huCD64 cells, apparent KD; SD 7.6
Description: as §1

[12] = target: T5, recombinant human NKG2D expressed on …; assay: flow cytometry, CHO-huNKG2D cells, apparent KD; SD 16.2
Description: as §1

[13] = target: T3, recombinant human NKp46 expressed on …; assay: flow cytometry, CHO-huNKp46 cells, apparent KD; SD 1.9
[14] = target: T2, recombinant human CD32A expressed on …; assay: flow cytometry, CHO-huCD32A cells, apparent KD; SD 2169.4
[15] = target: T1, recombinant human CD64 expressed on the …; assay: flow cytometry, CHO-huCD64 cells, apparent KD; SD 5.8

T3 sequence (O76036 22-304): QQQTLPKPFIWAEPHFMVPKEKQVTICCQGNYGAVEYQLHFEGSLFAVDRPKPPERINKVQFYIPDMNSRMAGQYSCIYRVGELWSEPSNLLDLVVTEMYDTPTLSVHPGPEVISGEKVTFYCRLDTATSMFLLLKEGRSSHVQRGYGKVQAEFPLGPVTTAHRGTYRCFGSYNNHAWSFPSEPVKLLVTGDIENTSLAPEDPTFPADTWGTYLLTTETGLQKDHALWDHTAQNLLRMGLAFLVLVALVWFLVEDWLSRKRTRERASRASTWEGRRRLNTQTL
T1 sequence (P12314 16-374): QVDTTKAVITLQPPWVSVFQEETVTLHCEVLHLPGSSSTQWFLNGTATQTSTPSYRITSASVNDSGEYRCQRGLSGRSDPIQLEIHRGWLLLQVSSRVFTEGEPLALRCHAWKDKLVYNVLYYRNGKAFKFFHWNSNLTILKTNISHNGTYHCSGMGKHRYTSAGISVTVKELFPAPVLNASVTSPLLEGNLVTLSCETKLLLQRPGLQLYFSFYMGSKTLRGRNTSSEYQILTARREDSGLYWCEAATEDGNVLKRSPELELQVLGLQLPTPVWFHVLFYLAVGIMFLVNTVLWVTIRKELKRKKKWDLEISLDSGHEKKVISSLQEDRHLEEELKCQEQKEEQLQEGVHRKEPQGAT

B1: 1Fab-AFc-1Fab-6 (bispecific antibody, human IgG1, kappa)
chain 1: DIVMTQSPATLSLSPGERATLSCRSSKSLQNVNGNTYLYWFQQKPGQSPQLLIYRMSNLNSGVPDRFSGSGSGTEFTLTISSLEPEDFAVYYCMQHLEYPITFGAGTKLEIKRTVAAPSVFIFPPSDEQLKSGTASVVCLLNNFYPREAKVQWKVDNALQSGNSQESVTEQDSKDSTYSLSSTLTLSKADYEKHKVYACEVTHQGLSSPVTKSFNRGECDKTHTCPPCPAPELLGGPDVFLFPPKPKDTLMISRTPEVTCVVVDVSHEDPEVKFNWYVDGVEVHNAKTKPREEQYNSTYRVVSVLTVLHQDWLNGKEYKCKVSNKALPAPEEKTISKAKGQPREPQVYTLPPSREEMTKNQVSLWCLVKGFYPSDIAVEWESNGQPENNYKTTPPVLDSDGSFFLYSKLTVDKSRWQQGNVFSCSVMHEALHNHYTQKSLSLSPGK
chain 2: EVQLVESGGGLVKPGGSLKLSCAASGYTFTSYVMHWVRQAPGKGLEWIGYINPYNDGTKYNEKFQGRVTISSDKSISTAYMELSSLRSEDTAMYYCARGTYYYGTRVFDYWGQGTLVTVSSASTKGPSVFPLAPSSKSTSGGTAALGCLVKDYFPEPVTVSWNSGALTSGVHTFPAVLQSSGLYSLSSVVTVPSSSLGTQTYICNVNHKPSNTKVDKKVEPKSCDKTHTCPPCPAPELLGGPDVFLFPPKPKDTLMISRTPEVTCVVVDVSHEDPEVKFNWYVDGVEVHNAKTKPREEQYNSTYRVVSVLTVLHQDWLNGKEYKCKVSNKALPAPEEKTISKAKGQPREPQVYTLPPSREEMTKNQVSLSCAVKGFYPSDIAVEWESNGQPENNYKTTPPVLDSDGSFFLVSKLTVDKSRWQQGNVFSCSVMHEALHNHYTQKSLSLSPGSTGSEVQLQQSGPELVKPGASVKISCKTSGYTFTEYTMHWVKQSHGKSLEWIGGISPNIGGTSYNQKFKGKATLTVDKSSSTAYMELRSLTSEDSAVYYCARRGGSFDYWGQGTTLTVSSRTVAAPSVFIFPPSDEQLKSGTASVVCLLNNFYPREAKVQWKVDNALQSGNSQESVTEQDSKDSTYSLSSTLTLSKADYEKHKVYACEVTHQGLSSPVTKSFNRGEC
chain 3: DIVMTQSPATLSVTPGDRVSLSCRASQSISDYLHWYQQKSHESPRLLIKYASQSISGIPSRFSGSGSGSDFTLSINSVEPEDVGVYYCQNGHSFPLTFGAGTKLELKASTKGPSVFPLAPSSKSTSGGTAALGCLVKDYFPEPVTVSWNSGALTSGVHTFPAVLQSSGLYSLSSVVTVPSSSLGTQTYICNVNHKPSNTKVDKKVEPKSCDKTH
notes: CD19, Fc-enhanced Fc, NKp46(NKp46-3); also called ComparatorA_6
[1]
  Kd: 12.6 nM
[2]
  Kd: 1010 nM
[3]
  Kd: 45.8 nM

B2: scFv-IgAb-396 (bispecific antibody)
chain 1: not shown
chain 2: DIVMTQSPATLSLSPGERATLSCRSSKSLQNVNGNTYLYWFQQKPGQSPQLLIYRMSNLNSGVPDRFSGSGSGTEFTLTISSLEPEDFAVYYCMQHLEYPITFGAGTKLEIKRTVAAPSVFIFPPSDEQLKSGTASVVCLLNNFYPREAKVQWKVDNALQSGNSQESVTEQDSKDSTYSLSSTLTLSKADYEKHKVYACEVTHQGLSSPVTKSFNRGEC
[4]
  Kd: 374 nM
[5]
  Kd: 9.8 nM
[6]
  Kd: 5190 nM
[7]
  Kd: 34.1 nM

B3: AIG-1scFv-6 (ComparatorB_2) (bispecific antibody, human IgG1, kappa)
heavy 1: not shown
light: B2 chain 2
heavy 2: not shown
notes: CD19, wt Fc, NKG2D(ADI-27743)
[8]
  Kd: 22.8 nM
[9]
  Kd: 2530 nM
[10]
  Kd: 22.3 nM

B4: AIG-1scFv-5 (ComparatorB_1) (bispecific antibody, human IgG1, kappa)
heavy 1: not shown
light: B2 chain 2
heavy 2: not shown
notes: CD19, wt Fc, NKG2D(KYK-2.0)
[9]
  Kd: 2470 nM
[11]
  Kd: 27.4 nM
[12]
  Kd: 28.5 nM

B5: scFv-IgAb-395 (bispecific antibody)
chain 1: not shown
chain 2: B2 chain 2
[13]
  Kd: 5.7 nM
[14]
  Kd: 5630 nM
[15]
  Kd: 42.3 nM
